Test [1] has as its target T1, Human TNFR2 (human, UniProt P20333 23-461).
T1 construct: On cells: HeLa-TNFR2, HT1080-Bcl2-TNFR2, transiently transfected HEK293; endogenous on Kym-1 cells; also called huTNFR2; TNFRSF1B
T1 sequence: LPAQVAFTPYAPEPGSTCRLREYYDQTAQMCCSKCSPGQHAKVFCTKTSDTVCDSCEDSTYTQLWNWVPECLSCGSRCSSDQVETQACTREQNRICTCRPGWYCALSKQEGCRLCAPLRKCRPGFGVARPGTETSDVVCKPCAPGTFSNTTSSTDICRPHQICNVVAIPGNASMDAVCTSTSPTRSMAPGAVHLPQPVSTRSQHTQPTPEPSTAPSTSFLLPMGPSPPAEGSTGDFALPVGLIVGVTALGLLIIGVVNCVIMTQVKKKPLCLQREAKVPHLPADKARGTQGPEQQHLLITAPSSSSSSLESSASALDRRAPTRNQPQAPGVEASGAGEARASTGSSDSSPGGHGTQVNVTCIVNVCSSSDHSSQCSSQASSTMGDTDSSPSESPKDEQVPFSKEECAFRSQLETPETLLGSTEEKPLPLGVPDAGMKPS
Nature of the test: specific binding of the GpL fusion protein to HeLa-TNFR2 cells after 8 h, HeLa values subtracted, luciferase activity normalised to GpL per binding site.
Protocol: HeLa-TNFR2 cells were pretreated with 3-10 μg/ml of the indicated anti-TNFR2 antibodies or remained untreated. […] Supernatants of HeLa-TNFR2 cells were then analyzed for TNFR2-induced IL8 production (B) and repeatedly washed cells (HeLa, and HeLa-TNFR2) were analyzed for cell-associated GpL activity. Specific binding to TNFR2, shown in (A) was calculated by subtraction of the unspecific binding values obtained from the HeLa cells from the total binding values derived of the HeLa-TNFR2 cells. […] The latter was transformed into “occupied receptors per cells” by help of the number of cells in the assay and the measured specific activity (RLU/molecule) of the GpL constructs.
Supernatants of HeLa-TNFR2 were then analyzed for TNFR2-induced IL8 production with the results shown in (B). Repeatedly washed cells (HeLa, and HeLa-TNFR2) were analyzed for cell-associated GpL activity. Specific binding to TNFR2, was calculated by subtraction of the unspecific binding values obtained from the HeLa cells from the total binding values derived of the HeLa-TNFR2 cells with the results obtained shown in (A).

The target in test [2] is T2, African green monkey TNFR2 (Chlorocebus sabaeus (African green …)).
T2 construct: whole, on cells
The experiment in a line: equilibrium binding of VHH-Fc-GpL to cells expressing African green monkey TNFR2, 37 C; column head Affinity (ng/ml). Here is the method: (§1) Specific binding (open circles) was obtained by subtraction of the non-specific binding values (Hek293 cells—crosses) from the binding values for transfectants expressing human TNFR2 (total binding—closed circles). Specific binding was analyzed with the “nonlinear regression to a one-site specific binding curve” function of the GraphPad Prism5 software.
(§2) The equivalent experiment was also performed using TNFR2 from different species, namely from Mus musculus (mouse), Macaca fascicularis (cynomolgus monkey), and Chlorocebus sabaeus (African green monkey) to study the ability of the VHH regions to bind to TNFR2 from different species. The ability to cross react to TNFR2 from different species can be helpful in allowing the antibodies to be studied in various models before assessment in human patients.

Test [3] concerns the target T3, Murine TNFR2 (mouse, UniProt P25119 23-474).
T3 construct: Expressed on transiently transfected HEK293 cells; also called mouse TNFR2; TNFR2(mu)
T3 sequence: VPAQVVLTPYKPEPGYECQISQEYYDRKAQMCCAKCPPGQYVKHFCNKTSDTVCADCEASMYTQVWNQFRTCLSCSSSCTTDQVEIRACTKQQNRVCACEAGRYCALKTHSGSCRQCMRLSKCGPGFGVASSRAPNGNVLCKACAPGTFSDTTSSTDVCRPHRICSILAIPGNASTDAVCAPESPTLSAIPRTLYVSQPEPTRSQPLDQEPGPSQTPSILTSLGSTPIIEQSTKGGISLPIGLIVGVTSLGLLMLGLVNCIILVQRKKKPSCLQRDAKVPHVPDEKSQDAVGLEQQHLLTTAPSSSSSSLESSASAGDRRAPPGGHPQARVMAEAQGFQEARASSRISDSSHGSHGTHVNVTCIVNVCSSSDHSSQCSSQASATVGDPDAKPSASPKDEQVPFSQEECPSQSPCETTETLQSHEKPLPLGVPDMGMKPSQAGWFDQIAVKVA
Nature of the test: equilibrium binding of VHH-Fc-GpL to cells expressing mouse TNFR2, 37 C. The procedure: as §1, §2

The target in test [4] is T1, Human TNFR2. Nature of the test: equilibrium binding of VHH-Fc-GpL to cells expressing human TNFR2, 37 °C; HEK293 cells as unspecific binding; one-site fit of specific binding.
Test [5] deals with T4, Cynomolgus TNFR2 (Macaca fascicularis (cynomolgus monkey), UniProt P20333 26-461 (human entry)).
T4 construct: Expressed on transiently transfected HEK293 cells; also called TNFR2-cyno; monkey TNFR2
T4 chain: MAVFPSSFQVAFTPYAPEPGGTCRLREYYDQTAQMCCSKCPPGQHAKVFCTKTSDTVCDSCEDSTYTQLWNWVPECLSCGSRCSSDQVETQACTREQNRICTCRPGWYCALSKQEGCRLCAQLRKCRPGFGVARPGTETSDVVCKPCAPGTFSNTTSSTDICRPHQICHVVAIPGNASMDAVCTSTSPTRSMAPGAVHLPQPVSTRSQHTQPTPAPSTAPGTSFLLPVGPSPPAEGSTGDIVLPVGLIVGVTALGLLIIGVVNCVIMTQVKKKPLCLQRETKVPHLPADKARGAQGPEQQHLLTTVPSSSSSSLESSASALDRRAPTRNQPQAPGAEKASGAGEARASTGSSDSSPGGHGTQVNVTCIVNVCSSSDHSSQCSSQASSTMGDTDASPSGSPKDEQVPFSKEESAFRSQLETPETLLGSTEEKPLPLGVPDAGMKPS
Nature of the test: equilibrium binding of VHH-Fc-GpL to cells expressing cynomolgus TNFR2, 37 C. The procedure:
as §1, §2

Test [6] concerns the target T3, Murine TNFR2. The experiment in a line: equilibrium binding of VHH-Fc-GpL to cells expressing mouse TNFR2, 37 C; column head Affinity (ng/ml). The procedure:
as §1, §2

Test [7] deals with T4, Cynomolgus TNFR2. Nature of the test: equilibrium binding of VHH-Fc-GpL to cells expressing cynomolgus TNFR2, 37 C; column head Affinity (ng/ml). The procedure:
as §1, §2

B1: C4-IgG1(N297A)-LC:GpL-HC:scFvC4 (antibody)
light: EVKLVPRQLDIVMTQSHKFMSTSVGDRVSITCKASQDVDTAVAWYQQKPGQSPKLLIYWASTRHTGVPDRFTGSGSGTDYTLTISSVQAEDLARYYCQQYYSVPPTFGGGTKLGSEIKRTVAAPSVFIFPPSDEQLKSGTASVVCLLNNFYPREAKVQWKVDNALQSGNSQESVTEQDSKDSTYSLSSTLTLSKADYEKHKVYACEVTHQGLSSPVTKSFNRGECLEKPTENNEDFNIVAVASNFATTDLDADRGKLPGKKLPLEVLKEMEANARKAGCTRGCLICLSHIKCTPKMKKFIPGRCHTYEGDKESAQGGIGEAIVDIPEIPGFKDLEPMEQFIAQVDLCVDCTTGCLKGLANVQCSDLLKKWLPQRCATFASKIQGQVDKIKGAGGD
heavy: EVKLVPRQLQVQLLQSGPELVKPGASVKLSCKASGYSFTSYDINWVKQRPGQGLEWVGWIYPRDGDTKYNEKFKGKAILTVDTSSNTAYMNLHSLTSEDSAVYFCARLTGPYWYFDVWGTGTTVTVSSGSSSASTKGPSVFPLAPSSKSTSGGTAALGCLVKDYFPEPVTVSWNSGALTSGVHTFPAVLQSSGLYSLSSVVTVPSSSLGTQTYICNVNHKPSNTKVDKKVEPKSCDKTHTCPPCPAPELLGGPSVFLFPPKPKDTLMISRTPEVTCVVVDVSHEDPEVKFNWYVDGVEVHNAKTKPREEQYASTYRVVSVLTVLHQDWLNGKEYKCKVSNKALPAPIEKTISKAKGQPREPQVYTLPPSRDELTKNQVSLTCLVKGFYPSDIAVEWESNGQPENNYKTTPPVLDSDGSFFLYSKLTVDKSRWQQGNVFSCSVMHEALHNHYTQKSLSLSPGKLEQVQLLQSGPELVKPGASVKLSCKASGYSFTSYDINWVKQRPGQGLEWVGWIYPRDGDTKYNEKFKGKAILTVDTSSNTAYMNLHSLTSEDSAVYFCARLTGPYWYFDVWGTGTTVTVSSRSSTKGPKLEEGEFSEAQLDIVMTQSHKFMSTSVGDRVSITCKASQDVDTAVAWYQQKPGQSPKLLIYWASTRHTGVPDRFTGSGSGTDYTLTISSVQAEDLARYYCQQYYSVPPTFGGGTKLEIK
notes: copies: 2 + 2
B1: the binding result with Human TNFR2 [1] is recorded as “binds”.

B2: VHH:C12-Fc-GpL (Fc fusion)
VHH: DVQLVESGGGLVQPGGSLRLSCGGSGFTFSSYGMSWVRQAPGKGLEWVSGIYDDGSVTDYADSVKGRFTISRDDAKNTVYLQMNSLKSEDTALYYCATGEDGELNYWGQGTQVTVSS
notes: also called VHH-Fc-GpL format protein of C12; not shown: The Fc domain, the C-terminal GpL reporter and the linkers or tags of the VHH-Fc-GpL construct; No entry gives the joined chain or says which Fc variant was used
As to B2, the Kd (as a rule, the free concentration of one partner at which half of the binding sites on the other are occupied at equilibrium, for simple one-to-one binding) turned out to be 0.08 µg/mL in test [2] and 0.8 µg/mL in the test with Human TNFR2 [4]. Also, the binding result with Murine TNFR2 [3] and with Cynomolgus TNFR2 [5] was “no binding” in each case.

B3: VHH:C188-Fc-GpL (Fc fusion, Gaussia princeps)
chain: DVQLVESGGGSVQTGGSLTLSCAISGSTSERYCLGWFRQAPGREREGVAATSLTGRGAQFYADSVKGRFTISLDDAKNTLYLQMDSLRPDDTAVYYCAEDVGFLCGYDSDNDPFYDWGQGTQVTVSS
notes: also called VHH-Fc-GpL format protein of C188; not shown: Fc domain; Gaussia princeps luciferase (GpL) reporter domain at the C-terminus of the Fc
As for B3, the Kd in the test with Murine TNFR2 [6] stood at 0.95 µg/mL; in test [2], 0.15 µg/mL; with Cynomolgus TNFR2 [7], 0.45 µg/mL; with Human TNFR2 [4], 0.57 µg/mL.

B4: VHH:C238-Fc-GpL (Fc fusion)
VHH: QVQLVESGGGSVQPGGSLTLSCVDSGSAYLSYCMAWFRQAPGKEREGVAAIYYGGDSYYADSVKGRFTISQDHAKNTMYLQMNSLKPEDTAVYYCAADVGFICGYDSDNDPPNDWGQGTQVTVSS
notes: also called VHH-Fc-GpL format protein of C238; not shown: the listing has no entry for the VHH-Fc-GpL format
In the case of B4, the Kd in the test with Murine TNFR2 [6] came out at 1.05 µg/mL; in test [2], 0.17 µg/mL; with Cynomolgus TNFR2 [7], 0.2 µg/mL; with Human TNFR2 [4], 0.67 µg/mL.

The values are drawn from patent US20240190983A1 (JULIUS MAXIMILIANS UNIVERSIT T W RZBURG, published 2024).
